Values of other authors, collected in patent US20240293585A1, “HIGH MOLECULAR WEIGHT ZWITTERION-CONTAINING POLYMERS” (Kodiak Sciences Inc., priority 0001, published 2024).

Which “Human half life after subcutaneous injection” value (human, subcutaneous) does the source give for “Cimzia: Fab′ against TNFa conjugated with a 40 kDa branched polymer [reference compound]” here?
Its value is 311 h.

With “Mircera: PEGylated form of recombinant human erythropietin [reference compound]” as the substance, how does the “in vivo half life after subcutaneous injection” value (chronic renal disease patients, subcutaneous) read?
Its value is “approximately 140 hours”.

For “rhEPO: 30.4 kDa protein with 165 amino acids; native form of human erythropoietin with 3 N-linked chains”, which “mean terminal half life after intravenous injection” value (human, intravenous) is on record?
Its value is 7 h.

What about the “mean terminal half life after subcutaneous injection” value (human, subcutaneous) of the same substance?
The value was 16 h.
